In patent US12630600B2 (MEDIMMUNE LIMITED, priority 2022, dated 2026):
Starred links: 1 amine or outer side, 2 acyl side, 3 side chain; linkers in the order of their positions; H or OH if unused. Non-standard residues stand in square brackets, D forms with d. Groups on a side chain read outwards from the residue. No end group written: not given here. *: point of attachment. C20 diacid = O=C(O)CCCCCCCCCCCCCCCCCCC(=O)*; C18 diacid = O=C(O)CCCCCCCCCCCCCCCCC(=O)*; γGlu = O=C(O)[C@H](CCC(=O)[*:2])N[*:1]; αMeF = C[C@](N)(Cc1ccccc1)C(=O)O; AEEA = NCCOCCOCC(=O)O; Aib = CC(C)(N)C(=O)O

B1: Peptide 466 (peptide)
peptide: H[Aib]QGTFTSDVSK[αMeF]LDTK([AEEA-AEEA-γGlu-C18 diacid])RAQDFVQWLLE[Aib]G-NH2
modifications: N-terminus assumed
SMILES: CC(C)C[C@H](NC(=O)[C@H](Cc1c[nH]c2ccccc12)NC(=O)[C@H](CCC(N)=O)NC(=O)[C@@H](NC(=O)[C@H](Cc1ccccc1)NC(=O)[C@H](CC(=O)O)NC(=O)[C@H](CCC(N)=O)NC(=O)[C@H](C)NC(=O)[C@H](CCCNC(=N)N)NC(=O)[C@H](CCCCNC(=O)COCCOCCNC(=O)COCCOCCNC(=O)CC[C@H](NC(=O)CCCCCCCCCCCCCCCCC(=O)O)C(=O)O)NC(=O)[C@@H](NC(=O)[C@H](CC(=O)O)NC(=O)[C@H](CC(C)C)NC(=O)[C@](C)(Cc1ccccc1)NC(=O)[C@H](CCCCN)NC(=O)[C@H](CO)NC(=O)[C@@H](NC(=O)[C@H](CC(=O)O)NC(=O)[C@H](CO)NC(=O)[C@@H](NC(=O)[C@H](Cc1ccccc1)NC(=O)[C@@H](NC(=O)CNC(=O)[C@H](CCC(N)=O)NC(=O)C(C)(C)NC(=O)[C@@H](N)Cc1c[nH]cn1)[C@@H](C)O)[C@@H](C)O)C(C)C)[C@@H](C)O)C(C)C)C(=O)N[C@@H](CC(C)C)C(=O)N[C@@H](CCC(=O)O)C(=O)NC(C)(C)C(=O)NCC(N)=O
B2: Peptide 465 (peptide)
peptide: H[Aib]QGTFTSDVSK[αMeF]LDLK([AEEA-AEEA-γGlu-γGlu-C18 diacid])RAQDFVQWLL[Aib]T-OH
modifications: N-terminus assumed
SMILES: CC(C)C[C@H](NC(=O)[C@H](CC(=O)O)NC(=O)[C@H](CC(C)C)NC(=O)[C@](C)(Cc1ccccc1)NC(=O)[C@H](CCCCN)NC(=O)[C@H](CO)NC(=O)[C@@H](NC(=O)[C@H](CC(=O)O)NC(=O)[C@H](CO)NC(=O)[C@@H](NC(=O)[C@H](Cc1ccccc1)NC(=O)[C@@H](NC(=O)CNC(=O)[C@H](CCC(N)=O)NC(=O)C(C)(C)NC(=O)[C@@H](N)Cc1c[nH]cn1)[C@@H](C)O)[C@@H](C)O)C(C)C)C(=O)N[C@@H](CCCCNC(=O)COCCOCCNC(=O)COCCOCCNC(=O)CC[C@H](NC(=O)CC[C@H](NC(=O)CCCCCCCCCCCCCCCCC(=O)O)C(=O)O)C(=O)O)C(=O)N[C@@H](CCCNC(=N)N)C(=O)N[C@@H](C)C(=O)N[C@@H](CCC(N)=O)C(=O)N[C@@H](CC(=O)O)C(=O)N[C@@H](Cc1ccccc1)C(=O)N[C@H](C(=O)N[C@@H](CCC(N)=O)C(=O)N[C@@H](Cc1c[nH]c2ccccc12)C(=O)N[C@@H](CC(C)C)C(=O)N[C@@H](CC(C)C)C(=O)NC(C)(C)C(=O)N[C@H](C(=O)O)[C@@H](C)O)C(C)C
B3: Peptide 469 (peptide)
peptide: H[Aib]QGTFTSDVSK[αMeF]LDTK([AEEA-AEEA-γGlu-γGlu-C20 diacid])RAQDFVQWLLE[Aib]G-NH2
modifications: N-terminus assumed
SMILES: CC(C)C[C@H](NC(=O)[C@H](Cc1c[nH]c2ccccc12)NC(=O)[C@H](CCC(N)=O)NC(=O)[C@@H](NC(=O)[C@H](Cc1ccccc1)NC(=O)[C@H](CC(=O)O)NC(=O)[C@H](CCC(N)=O)NC(=O)[C@H](C)NC(=O)[C@H](CCCNC(=N)N)NC(=O)[C@H](CCCCNC(=O)COCCOCCNC(=O)COCCOCCNC(=O)CC[C@H](NC(=O)CC[C@H](NC(=O)CCCCCCCCCCCCCCCCCCC(=O)O)C(=O)O)C(=O)O)NC(=O)[C@@H](NC(=O)[C@H](CC(=O)O)NC(=O)[C@H](CC(C)C)NC(=O)[C@](C)(Cc1ccccc1)NC(=O)[C@H](CCCCN)NC(=O)[C@H](CO)NC(=O)[C@@H](NC(=O)[C@H](CC(=O)O)NC(=O)[C@H](CO)NC(=O)[C@@H](NC(=O)[C@H](Cc1ccccc1)NC(=O)[C@@H](NC(=O)CNC(=O)[C@H](CCC(N)=O)NC(=O)C(C)(C)NC(=O)[C@@H](N)Cc1c[nH]cn1)[C@@H](C)O)[C@@H](C)O)C(C)C)[C@@H](C)O)C(C)C)C(=O)N[C@@H](CC(C)C)C(=O)N[C@@H](CCC(=O)O)C(=O)NC(C)(C)C(=O)NCC(N)=O
B4: Peptide 456 (peptide)
peptide: H[Aib]QGTFTSDVSK[αMeF]LDRK([AEEA-AEEA-γGlu-C20 diacid])RAQDFVRWLL[Aib]E-NH2
modifications: N-terminus assumed
SMILES: CC(C)C[C@H](NC(=O)[C@H](Cc1c[nH]c2ccccc12)NC(=O)[C@H](CCCNC(=N)N)NC(=O)[C@@H](NC(=O)[C@H](Cc1ccccc1)NC(=O)[C@H](CC(=O)O)NC(=O)[C@H](CCC(N)=O)NC(=O)[C@H](C)NC(=O)[C@H](CCCNC(=N)N)NC(=O)[C@H](CCCCNC(=O)COCCOCCNC(=O)COCCOCCNC(=O)CC[C@H](NC(=O)CCCCCCCCCCCCCCCCCCC(=O)O)C(=O)O)NC(=O)[C@H](CCCNC(=N)N)NC(=O)[C@H](CC(=O)O)NC(=O)[C@H](CC(C)C)NC(=O)[C@](C)(Cc1ccccc1)NC(=O)[C@H](CCCCN)NC(=O)[C@H](CO)NC(=O)[C@@H](NC(=O)[C@H](CC(=O)O)NC(=O)[C@H](CO)NC(=O)[C@@H](NC(=O)[C@H](Cc1ccccc1)NC(=O)[C@@H](NC(=O)CNC(=O)[C@H](CCC(N)=O)NC(=O)C(C)(C)NC(=O)[C@@H](N)Cc1c[nH]cn1)[C@@H](C)O)[C@@H](C)O)C(C)C)C(C)C)C(=O)N[C@@H](CC(C)C)C(=O)NC(C)(C)C(=O)N[C@@H](CCC(=O)O)C(N)=O
B5: Peptide 462 (peptide)
peptide: H[Aib]QGTFTSDVSK[αMeF]LDTK([AEEA-AEEA-γGlu-C18 diacid])RARDFVQWLLEAG-OH
modifications: N-terminus assumed
SMILES: CC(C)C[C@H](NC(=O)[C@H](CC(C)C)NC(=O)[C@H](Cc1c[nH]c2ccccc12)NC(=O)[C@H](CCC(N)=O)NC(=O)[C@@H](NC(=O)[C@H](Cc1ccccc1)NC(=O)[C@H](CC(=O)O)NC(=O)[C@H](CCCNC(=N)N)NC(=O)[C@H](C)NC(=O)[C@H](CCCNC(=N)N)NC(=O)[C@H](CCCCNC(=O)COCCOCCNC(=O)COCCOCCNC(=O)CC[C@H](NC(=O)CCCCCCCCCCCCCCCCC(=O)O)C(=O)O)NC(=O)[C@@H](NC(=O)[C@H](CC(=O)O)NC(=O)[C@H](CC(C)C)NC(=O)[C@](C)(Cc1ccccc1)NC(=O)[C@H](CCCCN)NC(=O)[C@H](CO)NC(=O)[C@@H](NC(=O)[C@H](CC(=O)O)NC(=O)[C@H](CO)NC(=O)[C@@H](NC(=O)[C@H](Cc1ccccc1)NC(=O)[C@@H](NC(=O)CNC(=O)[C@H](CCC(N)=O)NC(=O)C(C)(C)NC(=O)[C@@H](N)Cc1c[nH]cn1)[C@@H](C)O)[C@@H](C)O)C(C)C)[C@@H](C)O)C(C)C)C(=O)N[C@@H](CCC(=O)O)C(=O)N[C@@H](C)C(=O)NCC(=O)O

These binders were tested against human glucagon receptor (human, UniProt P47871) (assay: cell-based or functional assay).

cAMP production EC50 [pM]	Binder
131	B1
436	B2
66.5	H[Aib]QGTFTSDVSK[αMeF]LDKK([AEEA-AEEA-γGlu-C20 diacid])RAQDFVRWLLAE-NH2 [Peptide 460]
538	B3
80.3	B4
89.2	B5
292	H[Aib]QGTFTSDVSK[αMeF]LDTK([AEEA-AEEA-γGlu-γGlu-C18 diacid])RAQDFVQWLLE[Aib]G-NH2 [Peptide 468]

The binders below were run against human GLP-1 receptor (human, UniProt P43220) (assay: cell-based or functional assay).

cAMP production EC50 [pM]	Binder
35.6	B1
485	B2
117	H[Aib]QGTFTSDVSK[αMeF]LDKK([AEEA-AEEA-γGlu-C20 diacid])RAQDFVRWLLAE-NH2 [Peptide 460]
255	B3
133	B4
39.5	B5
67.5	H[Aib]QGTFTSDVSK[αMeF]LDTK([AEEA-AEEA-γGlu-γGlu-C18 diacid])RAQDFVQWLLE[Aib]G-NH2 [Peptide 468]
